# Values of other authors in PMC7290751.
# Assays:
# [1] = biological target: Kv1.3 (Homo sapiens) (UniProt P22001)
# [2] = biological target: Kv1.2 (Homo sapiens) (UniProt P16389)
# Chain of UniProt P16389 (P16389 whole entry): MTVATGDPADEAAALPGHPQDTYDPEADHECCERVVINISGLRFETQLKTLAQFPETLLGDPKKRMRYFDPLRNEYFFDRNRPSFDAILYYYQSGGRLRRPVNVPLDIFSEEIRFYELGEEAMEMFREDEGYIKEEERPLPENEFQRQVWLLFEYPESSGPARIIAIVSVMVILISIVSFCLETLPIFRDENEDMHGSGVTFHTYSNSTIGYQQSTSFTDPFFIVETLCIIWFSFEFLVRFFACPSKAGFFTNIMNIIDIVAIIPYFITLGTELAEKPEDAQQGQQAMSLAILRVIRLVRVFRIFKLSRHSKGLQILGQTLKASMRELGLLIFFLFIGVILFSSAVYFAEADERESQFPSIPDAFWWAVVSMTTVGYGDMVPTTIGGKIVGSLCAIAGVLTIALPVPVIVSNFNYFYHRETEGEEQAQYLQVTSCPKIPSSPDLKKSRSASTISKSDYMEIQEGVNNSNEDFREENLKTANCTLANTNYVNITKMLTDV
# Chain of UniProt P22001 (P22001 whole entry): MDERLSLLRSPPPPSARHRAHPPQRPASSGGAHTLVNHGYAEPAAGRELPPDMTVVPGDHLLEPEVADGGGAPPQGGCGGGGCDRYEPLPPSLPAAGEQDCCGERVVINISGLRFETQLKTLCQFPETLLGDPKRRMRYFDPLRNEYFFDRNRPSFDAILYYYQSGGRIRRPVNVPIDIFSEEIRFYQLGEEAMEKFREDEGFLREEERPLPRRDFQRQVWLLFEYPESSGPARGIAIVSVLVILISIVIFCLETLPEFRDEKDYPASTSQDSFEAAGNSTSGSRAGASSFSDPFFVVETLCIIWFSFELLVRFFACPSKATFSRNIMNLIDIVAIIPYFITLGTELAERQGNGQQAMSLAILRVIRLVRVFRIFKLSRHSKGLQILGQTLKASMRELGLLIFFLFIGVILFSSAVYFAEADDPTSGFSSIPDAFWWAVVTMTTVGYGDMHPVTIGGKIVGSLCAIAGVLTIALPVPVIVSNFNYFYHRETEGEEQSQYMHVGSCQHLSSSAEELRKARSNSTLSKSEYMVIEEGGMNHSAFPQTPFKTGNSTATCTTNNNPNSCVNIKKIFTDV
substance,measurement,setting,value
margatoxin (MgTx) (from UniProt P40755),Kd,[1],11.7 pM
same,Kd,[2],6.4 pM
